Assay: soluble on expression in E. coli; label from the status in PepcDB or PDB records

Soluble on expression in E. coli, soluble:
MGHHHHHHSHMQSCESSGDSADDPLSRGLRRRGQPRVVVIGAGLAGLAAAKALLEQGFTDVTVLEASSHIGGRVQSVKLGHATFELGATWIHGSHGNPIYHLAEANGLLEETTDGERSVGRISLYSKNGVACYLTNHGRRIPKDVVEEFSDLYNEVYNLTQEFFRHDKPVNAESQNSVGVFTREEVRNRIRNDPDDPEATKRLKLAMIQQYLKVESCESSSHSMDEVSLSAFGEWTEIPGAHHIIPSGFMRVVELLAEGIPAHVIQLGKPVRCIHWDQASARPRGPEIEPRGEGDHNHDTGEGGQGGEEPRGGRWDEDEQWSVVVECEDCELIPADHVIVTVSLGVLKRQYTSFFRPGLPTEKVAAIHRLGIGTTDKIFLEFEEPFWGPECNSLQFVWEDEAESHTLTYPPELWYRKICGFDVLYPPERYGHVLSGWICGEEALVMEKCDDEAVAEICTEMLRQFTGNPNIPKPRRILRSAWGSNPYFRGSYSYTQVGSSGADVEKLAKPLPYTESSKTAPMQVLFSGEATHRKYYSTTHGALLSGQREAARLIEMYRDLFQQGT
MGHHHHHHSHMVPSREALLGPGTTAIRCPKKLQNQNYKGHGLSKGKEREQRASIRFKTTLMNTLMDVLRHRPGWVEVKDEGEWDFYWCDVSWLRENFDHTYMDEHVRISHFRNHYELTRKNYMVKNLKRFRKQLEREAGKLEAAKCDFFPKTFEMPCEYHLFVEEFRKNPGITWIMKPVARSQGKGIFLFRRLKDIVDWRKDTRSSDDQKDDIPVENYVAQRYIENPYLIGGRKFDLRVYVLVMSVFAECLLWSGHRRQDVHLTNVAVQKTSPDYHPKKGCKWTLQRFRQYLASKHGPEAVETLFRDIDNIFVKSLQSVQKVIISDKHCFELYGYDILIDQDLKPWLLEVNASPSLTASSQEDYELKTCLLEDTLHVVDMEARLTGREKRVGGFDLMWNDGPVSREEGAPDLSGMGNFVTNTHLGCVNDRKKQLRQLFCS
MGHHHHHHSHPSIPNPFPELCCSPFTSVLSADLFPKANSRKKQVIKVYSEDETSRALDVPSDITARDVCQLLILKNHYIDDHSWTLFEHLPHIGVERTIEDHELVIEVLSNWGIEEENKLYFRKNYAKYEFFKNP
MGHHHHHHSHQVLTTSRKPGRKTRRFAKVLARFFNWKYVNRGKLSLEDLAGIAERFWIISEVKGNPAILNLYERGEKTLEVSFTLSNVNKIKMDDSPAVFKGKAPIDPLVFGAIPQTKAGLKLTRKVEFRKKVVVKGDEWLFFYDDEMLFKLRILKISRSS
MGHHHHHHSHVAQFPTPFGGSLDTWAITVEERAKHDQQFHSLKPISGFITGDQARNFFFQSGLPQPVLAQIWALADMNNDGRMDQVEFSIAMKLIKLKLQGYQLPSALPPVMKQQPVAISS
MGHHHHHHSHVHMKDFFYFRNHFCITFELLGINLYELMKNNNFQGFSLSIVRRFTLSVLKCLQMLSVEKIIHCDLKPENIVLYQKGQASVKVIDFGSSCYEHQKVYTYIQSRFYRSPEVILGHPYDVAIDMWSLGCITAELYTGYPLFPGENEVEQLACIMEVLGLPPAGFIQTASRRQTFFDSKGFPKNITNNRG
MGHHHHHHSHYPPIEFDKYKCKNSEDFYLFVGRLWHEKRPEEAIRGCIKAKKKIVVIGSGYLEKYLRDKYGKNPYVEIKGFVSEEEKVDLLASCKAVIYPCIAEDFGIVPIEAFASGKPVIADNSGFPPYVVNEERGIITDCSNPDNIAKAIEELEKKKYDPDKIREFAKQF

Soluble on expression in E. coli, not soluble:
MGHHHHHHSHMPDNHKDPPDFNNLEMKLEERIELSREDQDIQSTSSSYPHCEALDHIVSMESTYDFHRQMAHKDLQKHRQEYEKASEKILELRKKLTDWNMDPKKRKWIEDDLDSLVRKQESALSRIRLAEKCTKRDLRNDPPPAYQPDDPLKDLRKNFEKKEKPTWNDVEKKKNGVFEFH
MGHHHHHHSHMQPAKEVTKASDGSLLGDLGHTPLSKKEGIKWQRPRLSRQALMRCCLVKWILSSTAPQGSDSSDSELELSTVRHQPEGLDQLQAQTKFTKKELQSLYRGFKNECPTGLVDEDTFKLIYAQFFPQGDATTYAHFLFNAFDADGNGAIHFEDFVVGLSILLRGTVHEKLKWAFNLYDINKDGYITKEEMLAIMKSIYDMMGRHTYPILREDAPAEHVERFFEKMDRNQDGVVTIEEFLEACQKDENIMSSMQLFENVI
MGHHHHHHSHMRSVSYVQRVALEFSGSLFPHAICLGDVDNDTLNELVVGDTSGKVSVYKNDDSRPWLTCSCQGMLTCVGVGDVCNKGKNLLVAVSAEGWFHLFDLTPAKVLDASGHHETLIGEEQRPVFKQHIPANTKVMLISDIDGDGCRELVVGYTDRVVRAFRWEELGEGPEHLTGQLVSLKKWMLEGHHDKPGITQGTGIAIVNK
MGHHHHHHSHMSGRSVPHAHPATAEYEFANPSRLGEQRFGEGLLPEEILTPTLYHGYYVRPRAAPAGEGSRAGASELRLSEGKFQAFLDVSHFTPDEVTVRTVDNLLEVSARHPQRLDRHGFVSREFCRTYVLPADVDPWRVRAALSHDGILNLEAPRGGRHLDTEVNEVYISLLPAPPDPEEEEEAAIVEP
MGHHHHHHSHMWTPTEEEKYGVVICSFRGSVPQGLVLEIGETVQILEKCEGWYRGVSTKKPNVKGIFPANYIHLKKAIVSNRGQYETVVPLEDSIVTEVTATLQEWASLWKQLYVKHKVDLFYKLRHVMNELIDLRRQLLSGHLTQDQVREVKRHITVRLDWGNEHLGLDLVPRKDFEVVDSDQISVSDLYKMHL
MGHHHHHHSHMWVDDFPLHRSACEGDSELLSRLLSERFSVNQLDSDHWAPIHYACWYGKVEATRILLEKGKCNPNLLNGQLSSPLHFAAGGGHAEIVQILLNHPETDRHITDQQGRSPLNICEENKQNNWEEAAKLLKEAINKPY
MGHHHHHHSHMYSLNQEIKAFSRNNLRKQCTRVTTLTGKKIIETWKDARIHVVEEVEPSSGGGCGYVQDLSSDLQVGVIKPWLLLGSQDAAHDLDTLKKNKVTHILNVAYGVENAFLSDFTYKSISILDLPETNILSYFPECFEFIEEAKRKDGVVLVHCNAGVSRAAAIVIGFLMNSEQTSFTSAFSLVKNARPSICPNSGFMEQLRTYQEGKESNKCDRIQENSS
MGHHHHHHSHNSARADVYPDGFKGHMLTKSEKNQLLAIASSLFVAFQLRAQHFQGNSRMPVIKPDIANWELSVKLHDKVHTVVASNNGSVFLVEVDGSKLNVTSTWNLFALIVCQR
MGHHHHHHSHPRPEQHKSYKIRFNSISCSDPLVSSWRRKRKESSNTDSAGALGTLRFCVFGLGSRAYPHFCAFARAVDTRLEELGGERLLQLGQGDELCGQEEAFRGWAQAAFQAACETFCVGEDAKAAARDIFSPKRSWKRQRYRLSAQAEGLQLLPGLIHVHRRKMFQATIRSVENLQSSKSTRATILVRLDTGGQEGLQYQPGDHIGVCPPNRPGLV
MGHHHHHHSHQMVNQQQNKFDLRPLMEAVDTVKQKITLLENNDQRLAVLEEETNKHDTHINIHKAQLSKNEERFKLLEGTCYNGKLIWKVTDYKMKKREAVDGHTVSIFSQSFYTSRCGYRLCARAYLNGDGSGRGSHLSLYFVVMRGEFDSLLQWPFRQRVTLMLLDQSGKKNIMETFKPDPNSSSFKRPDGEMNIASGCPRFVAHSVLENAKNAYIKDDTLFLKVAVDLTDLEDL
MGHHHHHHSHRGAGRVSRWPPPHWLEAWRVSPRPLSPLSPATFGRGFIAVAVIPGLWARGRGCSSDRLPRPAGPARRQFQAASLLTRGWGRAWPWKQILKELDECYERFSRETDGAQK
MGHHHHHHSHRNLDSRTFITIGDRNFEVEADDLVTISELGRGAYGVVEKVRHAQSGTIMAVKRIRATVNSQEQKRLLMDLDINMRTVDCFYTVTFYGALFREGDVWICMELMDTSLDKFYRKVLDKNMTIPEDILGEIAVSIVRALEHLHSKLSVIHRDVKPSNVLINKEGHVKMCDFGISGYLVDSVAKTMDAGCKPYMAPERINPELNQKGYNVKSDVWSLGITMIEMAILRFPYESWGTPFQQLKQVVEEPSPQLPADRFSPEFVDFTAQCLRKNPAERMSYLELMEHPFFTLHKTKKTDIAAFVKEILGEDS
MGHHHHHHSHVAVQTASKQVDGDYVVSEWSEIIEFCTADYSKVHLTQLLEKAEVIAGRMLKFSVFYRNQHKEYFDYVREHHGNAMQPSVKDNSGSHGSPISGKLEGIFFSCSTEFNTGKPPQDSPYGRYRFEIAAEKLFNPNTNLYFGDFYCMYTAYHYVILVIAPVGSPGDEFCKQRLPQLNSKDNKFLTCTEEDGVLVYHHAQDVILEVIYTDPVDLSLGTVAEITGHQLMSLSTANAKKDPSCKTCNISVGR
MGIFETMSQVRRLPQALAAAVATPPALAGSGTLRGLIGLDDSLGEAVTTRAEALTIPAVLRARNLLSTTVARTPLVCDGTLPPFVPVAAPPGAATMQTPFHRMLATADDLLFNGVACWALDRDESGTCIGAIHIPLDTWQIEENTVRVNGKAVDPMEVCIFVGIHGGLLTHASETFTDARNLVRAAARVAQNPAALIELRQTNNAQLSPDDVDRIINGYVAARRGRNSGVGFSSSGLEVHEHEMAKENLLIEGRNAAAVDVARAMNVPAAFIDATVGGTSLSYQNAASRMIELVTFGVEPLMSAIEARLNQPDMHADHLANPLKFDPAALLDAIPTTPTIGAQPHGENS
MGITVMARIDNYEQRFGGIGRLYTPDSLARLRQAHICVIGIGGVGSWVVEALARSGIGELTLIDMDDICVTNINRQLPAMSGTIGKLKTEVMSERVKLINPECTVNIIDDFISPENQSDYLNRGYDYVIDAIDNVKTKASLIAYCKRNKINVITIGGAGGQTDPTQIQIADLSKTIQDPLLAKVRSVLRKDYNFSQNPKRKFSIDAVFSTQPLIFPQMTEGCSTSATMNCANGFGAATMITATFGFFAVSRVIDKLLKKKSLEHHHHHH

— the DeepSol protein solubility set
